Data taken from patent US20190367612A1 (Daiichi Sankyo, published 2019).

T1: human GPRC5D amino-terminal peptide MYKDCIESTGDYFLLCDAEGPWGIILE-K(Biotin)-NH2, having an intramolecular … (human, C-terminal lysine carrying biotin, C-terminal amide; intramolecularly formed disulfide bond)
T1 construct: Peptide Institute synthetic peptide; also called amino-terminal peptide of biotinylated human GPRC5D (disulfide bond present)
T1 peptide: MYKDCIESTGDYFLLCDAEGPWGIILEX

T2: human GPRC5D amino-terminal peptide …(Biotin)-NH2, lacking an intramolecular disulfide bond (human, biotinylated carboxy terminus, C-terminal amide; no intramolecularly formed disulfide bond)
T2 construct: Sigma-Aldrich synthetic peptide; also called amino-terminal peptide of human GPRC5D (disulfide bond absent)
T2 peptide: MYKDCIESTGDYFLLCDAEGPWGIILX


Key:
cynomolgus monkey CD3 = molecular target: T3, cynomolgus monkey CD3 (cynomolgus monkey, UniProt Q95LI5 22-198); assay: flow cytometry on cynomolgus monkey PBMC, Penta-His Alexa Fluor 488 detection, rMFI = MFI minus sample without antibody
T3 construct: whole, on cells; CD3 complex on cynomolgus monkey PBMC; also called cynomolgus monkey CD3 (PBMC); cynomolgus monkey CD3-expressing cells

human CD3 = molecular target: T4, human CD3 (human, UniProt P07766 23-207); assay: flow cytometry on human PBMC (dead and CD19-positive cells excluded), Penta-His Alexa Fluor 488 detection, rMFI = MFI minus sample without antibody
T4 construct: CD3 complex on human PBMC; also called human CD3 (PBMC); human CD3-expressing cells
Method: Commercially available human PBMC (Cellular Technology Limited) was adjusted to an appropriate concentration with PBS containing 5% FBS. LIVE/DEAD Fixable Near-IR Dead Cell Stain Kit (Thermo Fisher Scientific Inc.) and an anti-CD19 antibody (Beckman Coulter Inc.) were added to the cells, which were then left standing at 4° C. for 30 minutes. The cells were washed twice with PBS containing 5% FBS, then adjusted to a concentration of 1×10⁶ cells/mL with PBS containing 5% FBS, inoculated in an amount of 100 μL/well to a 96-well U-bottomed microplate, and centrifuged to remove a supernatant. Each anti-GPRC5D-anti-CD3 bispecific molecule (C2037-C3E7034 to C3022-C3E7036 prepared in Example 12) diluted with PBS containing 5% FBS were added thereto in an amount of 100 μL/well, and the plate was left standing at 4° C. for 60 minutes. The cells were washed twice with PBS containing 5% FBS. Then, Penta-His Alexa Fluor 488 (Qiagen N.V.) diluted with PBS containing 5% FBS was added thereto in an amount of 30 μL/well, and the plate was left standing at 4° C. for 30 minutes. […] The data was analyzed using Flowjo (Tree Star, Inc.). The mean fluorescence intensity (MFI) of Alexa Fluor 488 in a fraction free from dead cells and CD19-positive cells was calculated. […]

human GPRC5D [1] = molecular target: T5, human GPRC5D (human, UniProt Q9NZD1 1-345); assay: flow cytometry on A4/Fuk cells (endogenous human GPRC5D), Penta-His Alexa Fluor 488 detection, rMFI = MFI minus sample without antibody
T5 construct: whole, on cells; also called hGPRC5D; G-protein coupled receptor family C group 5 member D
Method: Lymphoma cell line A4/Fuk cells (JCRB Cell Bank) were adjusted to an appropriate concentration with PBS containing 5% FBS. LIVE/DEAD Fixable Near-IR Dead Cell Stain Kit was added to the cells, which were then left standing at 4° C. for 30 minutes. The cells were washed twice with PBS containing 5% FBS, then adjusted to a concentration of 1×10⁶ cells/mL with PBS containing 5% FBS, inoculated in an amount of 100 μL/well to a 96-well U-bottomed microplate, and centrifuged to remove a supernatant. Each anti-GPRC5D-anti-CD3 bispecific molecule (C2037-C3E7034 to C3022-C3E7036 prepared in Example 12) diluted with PBS containing 5% FBS were added thereto in an amount of 100 μL/well, and the plate was left standing at 4° C. for 60 minutes. The cells were washed twice with PBS containing 5% FBS. Then, Penta-His Alexa Fluor 488 diluted with PBS containing 5% FBS was added thereto in an amount of 30 μL/well, and the plate was left standing at 4° C. for 30 minutes. The cells were washed twice with PBS containing 5% FBS and then resuspended in PBS containing 5% FBS, followed by detection using a flow cytometer (FACSCanto™ II). The data was analyzed using Flowjo. The mean fluorescence intensity (MFI) of Alexa Fluor 488 in a fraction free from dead cells was calculated. The MFI value of the antibody-unsupplemented sample was subtracted from the MFI value of the antibody-supplemented sample to calculate a relative value of MFI (rMFI).

[2] = molecular target: T1, human GPRC5D amino-terminal peptide …; assay: ELISA, immobilised biotinylated peptide
Description: (§1) Epitopes bound by the obtained rat anti-GPRC5D antibodies (2A4, 2B1, and 7B4) were identified using a human GPRC5D amino-terminal peptide […](Biotin)-NH₂ (Sigma-Aldrich Corp.) (SEQ ID NO: 1 of the Sequence Listing; FIG. 2) having a biotinylated carboxy-terminal peptide and lacking an intramolecularly formed disulfide bond, and a human GPRC5D amino-terminal peptide […]-K(Biotin)-NH₂ (Peptide Institute, Inc.) (SEQ ID NO: 2 of the Sequence Listing; FIG. 3) having a lysine-containing biotinylated carboxy terminus and having an intramolecularly formed disulfide bond. Each peptide diluted with PBS was added to Nunc Immobilizer (Thermo Fisher Scientific Inc.), and the plate was left standing at room temperature for 1 hour. After washing three times with PBST, […] containing 1% BSA was added thereto, and the plate was left standing at room temperature for 1 hour. After washing three times with PBST, each rat anti-GPRC5D antibody (2A4, 2B1, and 7B4) prepared in Example 1)-7 and diluted to 0.1 ng/mL to 1 μg/mL with PBS was added thereto, and the plate was left standing at room temperature for 1 hour. After washing three times with PBST, Anti-Rat IgG, HRP-Linked Whole Ab Goat (GE Healthcare Bio-Sciences Corp.) diluted 500-fold with PBS was added thereto, and the plate was left standing at room temperature for 1 hour. After washing three times with PBST, SuperSignal™ ELISA Pico Chemiluminescent Substrate (Thermo Fisher Scientific Inc.) was added thereto, and the luminescence was measured using a plate reader (ENVISION; PerkinElmer, Inc.).

[3] = molecular target: T2, human GPRC5D amino-terminal peptide …; assay: ELISA, immobilised biotinylated peptide
Description: as §1

human GPRC5D [4] = molecular target: T5, human GPRC5D; assay: flow cytometry, KMS-34 cells
human GPRC5D [5] = molecular target: T5, human GPRC5D; assay: flow cytometry, KHM-1B cells
Method: Human multiple myeloma cell line KHM-1B cells (JCRB Cell Bank) expressing GPRC5D were adjusted to a concentration of 5×10⁶ cells/mL with PBS containing 5% FBS, inoculated in an amount of 100 μL/well to a 96-well U-bottomed microplate, and centrifuged to remove a supernatant. Each rat anti-GPRC5D antibody (2A4, 2B1, and 7B4) adjusted to 0.32 ng/mL to 10 μg/mL in Example 1)-7 was added thereto in an amount of 100 μL/well, and the plate was left standing at 4° C. for 1 hour. The cells were washed twice with PBS containing 5% FBS. Then, PE Goat Anti-Rat Ab (Becton, Dickinson and Company) diluted 100-fold with PBS containing 5% FBS was added thereto at a concentration of 100 μL/well, and the plate was left standing at 4° C. for 1 hour. The cells were washed twice with PBS containing 5% FBS and then resuspended in PBS containing 5% FBS, followed by detection using a flow cytometer (FACSCanto™ II; Becton, Dickinson and Company). The data was analyzed using Flowjo (Tree Star, Inc.). The PE fluorescence intensity of the cell fraction was plotted to a histogram, and the mean fluorescence intensity (MFI) was calculated.

T4 sequence (P07766 23-207 limits assumed): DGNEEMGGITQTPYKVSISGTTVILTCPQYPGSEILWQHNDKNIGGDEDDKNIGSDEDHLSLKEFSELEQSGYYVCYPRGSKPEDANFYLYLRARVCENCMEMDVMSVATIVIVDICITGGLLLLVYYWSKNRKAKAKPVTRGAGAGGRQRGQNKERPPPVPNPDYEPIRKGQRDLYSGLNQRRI
T3 sequence (Q95LI5 22-198): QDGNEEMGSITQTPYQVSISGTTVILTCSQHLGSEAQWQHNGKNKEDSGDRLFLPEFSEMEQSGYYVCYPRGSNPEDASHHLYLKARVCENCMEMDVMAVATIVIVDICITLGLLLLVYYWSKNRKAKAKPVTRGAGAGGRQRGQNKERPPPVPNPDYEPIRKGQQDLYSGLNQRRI

Row | EC50 (read off the curve) (cynomolgus monkey CD3) | EC50 (read off the curve) (human CD3) | binding result (human GPRC5D [1]) | Kd (human GPRC5D [4]) | MFI (max) (human GPRC5D [4]) | Kd (human GPRC5D [5]) | MFI (max) (human GPRC5D [5]) | Binder | binding result [2] | binding result [3]
1 | ~20 nM | ~0.3 nM | binds | – | – | – | – | anti-GPRC5D-anti-CD3 bispecific molecule C3022-C3E7034 (bispecific antibody, Tandem scFv) scFv: GQVQLVQSGAEVKKPGASVKVSCKASGYTFTGYYMHWVRQAPGQGLEWMGRINPNSGGTNYAQKFQGRVTMTRDTSISTAYMELSGLRSDDTAVYYCASGSVRHPWGQGTLVTVSSGGGGSGGGGSGGGGSQPVLTQPPSASGTPGQRVTISCSGSRSNIGGNIVSWYQQFPGTAPRLLTYADNQRPSGVPDRFSGSKSGTSASLAISGLQSEDEADYYCAAWDDSLNGVVFGGGTKLTVLGGGGSEVQLVESGGGLVQPGGSLRLSCAASGVTFNYYGMSWIRQAPGKGLEWVASITNSGGRIYYPDSVKGRFTISRENTQKTLYLQMNSLRAEDTAVYYCTLDGRDGWVAYWGQGTLVTVSSGGGGSGGGGSGGGGSNFMLTQPHSVSESPGKTVTISCKRNTGNIGSNYVNWYQQHEGSSPTTIIYRDDKRPDGVSDRFSGSIDRSSKSASLTISNLKTEDEADYFCQSYSSGFIFGGGTKLTVLGAAAGAGGDYKDDDDKGAAAHHHHHH | – | –
2 | – | ~0.4 nM | binds | – | – | – | – | anti-GPRC5D-anti-CD3 bispecific molecule C3048-C3E7034 (bispecific antibody, Tandem scFv) scFv: GQVQLVQSGAEVKKPGSSVKVSCKASGGTFSRYAISWVRQAPGQGLEWMGGIIPIFGTANYAQKFQGRVTITADQSTRTAYMDLGRLRSEDTAVYYCALEGFRDSLKRNPFDIWGQGTMVTVSSGGGGSGGGGSGGGGSQSVVTQPPSVSAAPGQKVTISCSGGTTNIGSNYVSWYQQLPGTAPKFLMYENNKRPSGIPDRFSGSKSGTSATLAITGLQTGDEATYYCSTWDSSLNTGLFGGGTKLTVLGGGGSEVQLVESGGGLVQPGGSLRLSCAASGVTFNYYGMSWIRQAPGKGLEWVASITNSGGRIYYPDSVKGRFTISRENTQKTLYLQMNSLRAEDTAVYYCTLDGRDGWVAYWGQGTLVTVSSGGGGSGGGGSGGGGSNFMLTQPHSVSESPGKTVTISCKRNTGNIGSNYVNWYQQHEGSSPTTIIYRDDKRPDGVSDRFSGSIDRSSKSASLTISNLKTEDEADYFCQSYSSGFIFGGGTKLTVLGAAAGAGGDYKDDDDKGAAAHHHHHH | – | –

Second part, the binder before the results:

Row | Binder | EC50 (read off the curve) (cynomolgus monkey CD3) | EC50 (read off the curve) (human CD3) | binding result (human GPRC5D [1]) | Kd (human GPRC5D [4]) | MFI (max) (human GPRC5D [4]) | Kd (human GPRC5D [5]) | MFI (max) (human GPRC5D [5]) | binding result [2] | binding result [3]
3 | rat anti-GPRC5D antibody 2A4 (antibody, V domains shown, Rat IgG2b, kappa chain) VH: QVQLQQSGAELAKPGTSVKLSCKASGYTFTSYYIYWVKQRPGQGLEWIGYVYPGYGGTYYSDKFKGKATFTADTSSSTAYMLLGSLTPEDSAYYFCARRKGIIRGPGYFDYWGQGVMVTVSS VL: DIQMTQSPASLSASLGETVSIECLASEGISNSLAWYQQKPGKSPQLLIYGASSLQDGVPSRFSGSGSGTQYSLKISGMQPEDEGLYYCQQGYKYPPTFGGGTKLELK | – | – | – | 1.4 nM | 2060 | 0.5 nM | 1150 | no binding (tested: 0.1 ng/mL to 1 µg/mL) | no binding (tested: 0.1 ng/mL to 1 µg/mL)
4 | rat anti-GPRC5D antibody 7B4 (antibody, V domains shown, Rat IgG2b, kappa chain) VH: EIHLQESGPGLVKPSQSLSLTCSVTGYTITSGYDWSWIRKFPGNKMEWMAYMSYRGSTNYNPSLKSRISITRDTSKNQFFLQLNSVTTEDTATYYCALTRTYWYNYYYVLDAWGQGASVTVSS VL: DIQMTQSPSFLSASVGERVTLSCKASQNINKYLDWYQQKLGEPPKLLIYNTNNLHTGIPSRFSGSGSGTDYTLTISGLQPEDVATYFCLQRNSWYTFGAGTKLELK | – | – | – | 2.1 nM | 4470 | 1.3 nM | 2490 | no binding (tested: 0.1 ng/mL to 1 µg/mL) | no binding (tested: 0.1 ng/mL to 1 µg/mL)
